The supplement of paper PMC11316812
± gives the standard deviation of the averaged measurements.

Assays:
MCF7 = assay: percentage of EdU-negative (G0-arrested) nuclei per well, 72 h; higher = more G0 arrest; details: reference: sequence is the full UniProt precursor, the tested protein was the secreted form or ectodomain
hTERT-HMEC = assay: as above; details: reference: sequence is the full UniProt precursor, the tested protein was the secreted form or ectodomain
[1] = protein concentration 0.03054 µM
[2] = protein concentration 0.3054 µM
[3] = protein concentration 0.0225 µM
[4] = protein concentration 0.03125 µM
[5] = protein concentration 0.3125 µM
[6] = protein concentration 0.0187725 µM
[7] = protein concentration 0.187725 µM
[8] = protein concentration 0.0286875 µM
[9] = protein concentration 0.286875 µM
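Further: secreted proteins added to cultured cells, EdU pulse at the end, nuclei found by Hoechst imaging, EdU status from nuclear versus surrounding ring intensity ratio, PBS as neutral control.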

Which results are given for “MKATIILLLLAQVSWAGPFQQRGLFDFMLEDEASGIGPEVPDDRDFEPSLGPVCPFRCQCHLRVVQCSDLGLDKVPKDLPPDTTLLDLQNNKITEIKDGDFKNLKNLHALILVNNKISKVSPGAFTPLVKLERLYLSKNQLKELPEKMPKTLQELRAHENEITKVRKVTFNGLNQMIVIELGTNPLKSSGIENGAFQGMKKLSYIRIADTNITSIPQGLPPSLTELHLDGNKISRVDAASLKGLNNLAKLGLSFNSISAVDNGSLANTPHLRELHLDNNKLTRVPGGLAEHKYIQVVYLHNNNISVVGSSDFCPPGHNTKKASYSGVSLFSNPVQYWEIQPSTFRCVYVRSAIQLGNYK”?
percentage of EdU-negative (MCF7; [1]): 24 ± 3.8%; percentage of EdU-negative (MCF7; [2]): 26.5 ± 1.1%; percentage of EdU-negative (hTERT-HMEC; [1]): 5.5 ± 0.71%; percentage of EdU-negative (hTERT-HMEC; [2]): 6.07 ± 0.48%

What does the source list for “MKAWGTVVVTLATLMVVTVDAKIYERCELAARLERAGLNGYKGYGVGDWLCMAHYESGFDTAFVDHNPDGSSEYGIFQLNSAWWCDNGITPTKNLCHMDCHDLLNRHILDDIRCAKQIVSSQNGLSAWTSWRLHCSGHDLSEWLKGCDMHVKIDPKIHP [Q96QH8]”?
percentage of EdU-negative (MCF7; [3]): 25.8 ± 1.2%; percentage of EdU-negative (MCF7; protein concentration 0.225 µM): 25.03 ± 0.22%; percentage of EdU-negative (hTERT-HMEC; [3]): 6.28 ± 1.5%; percentage of EdU-negative (hTERT-HMEC; protein concentration 0.225 µM): 7.91 ± 0.26%

With “MKENVASATVFTLLLFLNTCLLNGQLPPGKPEIFKCRSPNKETFTCWWRPGTDGGLPTNYSLTYHREGETLMHECPDYITGGPNSCHFGKQYTSMWRTYIMMVNATNQMGSSFSDELYVDVTYIVQPDPPLELAVEVKQPEDRKPYLWIKWSPPTLIDLKTGWFTLLYEIRLKPEKAAEWEIHFAGQQTEFKILSLHPGQKYLVQVRCKPDHGYWSAWSPATFIQIPSDFTMNDTTVWISVAVLSAVICLIIVWAVALKGYSMVTCIFPPVPGPKIKGFDAHLLEKGKSEELLSALGCQDFPPTSDYEDLLVEYLEVDDSEDQHLMSVHSKEHPSQGMKPTYLDPDTDSGRGSCDSPSLLSEKCEEPQANPSTFYDPEVIEKPENPETTHTWDPQCISMEGKIPYFHAGGSKCSTWPLPQPSQHNPRSSYHNITDVCELAVGPAGAPATLLNEAGKDALKSSQTIKSREEGKATQQREVESFHSETDQDTPWLLPQEKTPFGSAKPLDYVEIHKVNKDGALSLLPKQRENSGKPKKPGTPENNKEYAKVSGVMDNNILVLVPDPHAKNVACFEESAKEAPPSLEQNQAEKALANFTATSSKCRLQLGGLDYLDPACFTHSFH” as the sequence, how does the “percentage of EdU-negative” value (MCF7; [4]) read?
The value was 26.2 ± 3.5%.

What about the “percentage of EdU-negative” value (MCF7; [5]) of the same sequence?
Its value is 26.4 ± 0.51%.

What about the “percentage of EdU-negative” value (hTERT-HMEC; [4]) of the same sequence?
Its value is 4.8 ± 0.32%.

And the “percentage of EdU-negative” value (hTERT-HMEC; [5])?
Its value is 5.37 ± 0.74%.

Which “percentage of EdU-negative” value (MCF7; [3]) does the source give for “MKENYCLQAALVCLGMLCHSHAFAPERRGHLRPSFHGHHEKGKEGQVLQRSKRGWVWNQFFVIEEYTGPDPVLVGRLHSDIDSGDGNIKYILSGEGAGTIFVIDDKSGNIHATKTLDREERAQYTLMAQAVDRDTNRPLEPPSEFIVKVQDINDNPPEFLHETYHANVPERSNVGTSVIQVTASDADDPTYGNSAKLVYSILEGQPYFSVEAQTGIIRTALPNMDREAKEEYHVVIQAKDMGGHMGGLSGTTKVTITLTDVNDNPPKFPQSVYQMSVSEAAVPGEEVGRVKAKDPDIGENGLVTYNIVDGDGMESFEITTDYETQEGVIKLKKPVDFETKRAYSLKVEAANVHIDPKFISNGPFKDTVTVKISVEDADEPPMFLAPSYIHEVQENAAAGTVVGRVHAKDPDAANSPIRYSIDRHTDLDRFFTINPEDGFIKTTKPLDREETAWLNITVFAAEIHNRHQEAKVPVAIRVLDVNDNAPKFAAPYEGFICESDQTKPLSNQPIVTISADDKDDTANGPRFIFSLPPEIIHNPNFTVRDNRDNTAGVYARRGGFSRQKQDLYLLPIVISDGGIPPMSSTNTLTIKVCGCDVNGALLSCNAEAYILNAGLSTGALIAILACIVILLVIVVLFVTLRRQKKEPLIVFEEEDVRENIITYDDEGGGEEDTEAFDIATLQNPDGINGFIPRKDIKPEYQYMPRPGLRPAPNSVDVDDFINTRIQEADNDPTAPPYDSIQIYGYEGRGSVAGSLSSLESATTDSDLDYDYLQNWGPRFKKLADLYGSKDTFDDDS” here?
The value was 25.4 ± 0.51%.

And the “percentage of EdU-negative” value (MCF7; protein concentration 0.225 µM)?
Its value is 32.3 ± 2%.

And the “percentage of EdU-negative” value (hTERT-HMEC; [3])?
The value was 5.18 ± 0.56%.

What about the “percentage of EdU-negative” value (hTERT-HMEC; protein concentration 0.225 µM) of the same sequence?
The value was 9.88 ± 1.5%.

Which “percentage of EdU-negative” value (MCF7; [6]) does the source give for “MKEYVLLLFLALCSAKPFFSPSHIALKNMMLKDMEDTDDDDDDDDDDDDDDEDNSLFPTREPRSHFFPFDLFPMCPFGCQCYSRVVHCSDLGLTSVPTNIPFDTRMLDLQNNKIKEIKENDFKGLTSLYGLILNNNKLTKIHPKAFLTTKKLRRLYLSHNQLSEIPLNLPKSLAELRIHENKVKKIQKDTFKGMNALHVLEMSANPLDNNGIEPGAFEGVTVFHIRIAEAKLTSVPKGLPPTLLELHLDYNKISTVELEDFKRYKELQRLGLGNNKITDIENGSLANIPRVREIHLENNKLKKIPSGLPELKYLQIIFLHSNSIARVGVNDFCPTVPKMKKSLYSAISLFNNPVKYWEMQPATFRCVLSRMSVQLGNFGM [Q9BXN1]” here?
Its value is 26.18 ± 0.19%.

And the “percentage of EdU-negative” value (MCF7; [7])?
The value was 26.9 ± 3.7%.

And the “percentage of EdU-negative” value (hTERT-HMEC; [6])?
Its value is 4.7 ± 0.51%.

What about the “percentage of EdU-negative” value (hTERT-HMEC; [7]) of the same sequence?
Its value is 4.97 ± 0.19%.

Which results are given for “MKFFLLLFTIGFCWAQYSPNTQQGRTSIVHLFEWRWVDIALECERYLAPKGFGGVQVSPPNENVAIHNPFRPWWERYQPVSYKLCTRSGNEDEFRNMVTRCNNVGVRIYVDAVINHMSGNAVSAGTSSTCGSYFNPGSRDFPAVPYSGWDFNDGKCKTGSGDIENYNDATQVRDCRLVGLLDLALEKDYVRSKIAEYMNHLIDIGVAGFRLDASKHMWPGDIKAILDKLHNLNSNWFPAGSKPFIYQEVIDLGGEPIKSSDYFGNGRVTEFKYGAKLGTVIRKWNGEKMSYLKNWGEGWGFMPSDRALVFVDNHDNQRGHGAGGASILTFWDARLYKMAVGFMLAHPYGFTRVMSSYRWPRQFQNGNDVNDWVGPPNNNGVIKEVTINPDTTCGNDWVCEHRWRQIRNMVNFRNVVDGQPFTNWYDNGSNQVAFGRGNRGFIVFNNDDWTFSLTLQTGLPAGTYCDVISGDKINGNCTGIKIYVSDDGKAHFSISNSAEDPFIAIHAESKL”?
percentage of EdU-negative (MCF7; [3]): 25 ± 4.2%; percentage of EdU-negative (MCF7; protein concentration 0.225 µM): 31.3 ± 2.5%; percentage of EdU-negative (hTERT-HMEC; [3]): 6.12 ± 0.67%; percentage of EdU-negative (hTERT-HMEC; protein concentration 0.225 µM): 7.06 ± 0.1%

How did the “percentage of EdU-negative” value (MCF7; [8]) turn out when “MKFFLLLFTIGFCWAQYSPNTQQGRTSIVHLFEWRWVDIALECERYLAPKGFGGVQVSPPNENVAIYNPFRPWWERYQPVSYKLCTRSGNEDEFRNMVTRCNNVGVRIYVDAVINHMCGNAVSAGTSSTCGSYFNPGSRDFPAVPYSGWDFNDGKCKTGSGDIENYNDATQVRDCRLTGLLDLALEKDYVRSKIAEYMNHLIDIGVAGFRLDASKHMWPGDIKAILDKLHNLNSNWFPAGSKPFIYQEVIDLGGEPIKSSDYFGNGRVTEFKYGAKLGTVIRKWNGEKMSYLKNWGEGWGFVPSDRALVFVDNHDNQRGHGAGGASILTFWDARLYKMAVGFMLAHPYGFTRVMSSYRWPRQFQNGNDVNDWVGPPNNNGVIKEVTINPDTTCGNDWVCEHRWRQIRNMVIFRNVVDGQPFTNWYDNGSNQVAFGRGNRGFIVFNNDDWSFSLTLQTGLPAGTYCDVISGDKINGNCTGIKIYVSDDGKAHFSISNSAEDPFIAIHAESKL” was run?
Its value is 25.6 ± 0.39%.

And the “percentage of EdU-negative” value (MCF7; [9])?
Its value is 26.4 ± 0.48%.

What about the “percentage of EdU-negative” value (hTERT-HMEC; [8]) of the same sequence?
The value was 5.1 ± 0.51%.

And the “percentage of EdU-negative” value (hTERT-HMEC; [9])?
Its value is 11.4 ± 1.2%.
